Test results as given in patent US20090136506A1, “Conserved Membrane Activator of Calcineurin (CMAC), a Novel Therapeutic Protein and Target” (priority 2005, published 2009).

How the values were obtained:
Assay type in all cases: cell-based
[1] = system: cMAC mediated translocation of TORC1-eGFP; experiment: TORC1-eGFP translocation in HeLa:TORC1-eGFP cells transduced with human cMAC; conditions: EGTA in the medium; reversed by excess calcium (data not shown)
NFAT-1 = NFAT-1 translocation in Jurkat cells; conditions: PMA alone
Method: (§1) Fixing and staining Jurkat cells, NFAT translocation assay: Following treatment Jurkat cells were attached to 96 well plates using the Becton Dickinson Cell-Tak cell adhesive. The suspension cells were centrifuged (800×G) for 5 min onto precoated plates (as per manufacturer's instruction). The attached cells were permeabilized in 3.7% formaldehyde, 0.5% Triton X100 and washed twice with wash buffer (0.5% Triton X100 in PBS) and blocked with 2% BSA, 0.1% Triton X100 in PBS. The cells were incubated in primary antibodies NFAT-1 (Cellomics K01-0011-1 diluted 1:100) and NFAT-2 (Affinity Bioreagents MA3-024 diluted 1:250) in blocking buffer for 1 hour at room temperature. Cells were washed twice with wash buffer and incubated with secondary goat anti-mouse IgG conjugated to Alexa Fluor 488 GαM (Cellomics K01-0011-1 reagents antibody diluted 1:2000, and Hoechst dye 1:2000) in blocking buffer. Cells were washed once with PBS and imaged. […]
(§2) The effect of cMAC on the nuclear translocation of the transcription factor NFAT and its dependence on calcineurin was also examined. […] While NFAT-1 and NFAT-2 were detected in the cytoplasm of control virus infected cells, both isoforms of NFAT were localized primarily in the nucleus in a large proportion of cMAC transduced cells. […]

NFAT-2 = NFAT-2 translocation in Jurkat cells; conditions: PMA alone
Method: as §1, §2

IL-2 [2] = experiment: Jurkat T-cell activation, IL-2 protein (ELISA); conditions: Jurkat cells, PMA alone
Method: (§3) Transduction and sensitization of Jurkat cells: Jurkat cells were maintained in RPMI 1640 (GIBCO 21870-076) 10% FC1 Fetal clone1 (Hyclone), 1% Pen/Strep, 1% Glutamax1, 0.1% beta mercaptoethanol. Prior to transduction the cells were switched to transduction media which contains: RPMI 1640 (above) fortified with 2.25 g glucose 1% antibiotic/antimycotic, 1% 1M Hepes (Gibco), 1% 100 mM sodium pyruvate, 10 ml 7.5% Sodium Bicarbonate 10% Fetal Clone serum 1. Cells were seeded 5×104 in transduction media combined with virus (volume in legend) and 4 ug/ml polybrene final concentration and centrifuged at ˜800×g for 3 hrs. For activation of ICOS and IL-2 expression experiments cells were transduced with 50 μl of retroviral supernatant (QL-GW-Final-Kan) and 48 hours post transduction the media was fortified with PMA (phorbol 12-myristate 13-acetate) 10 ng/ml and 24 hours after addition the cells or media were removed for ICOS or IL-2 measurements. […]
(§4) Analysis of ICOS surface marker and IL-2 protein expression: 1.5 uL of ICOS-PE (BD-Parmingen 557802) was combined with ˜1×10^6 Jurkat cells and incubated on ice for 30 min. Cells were centrifuged ˜500×g 5 min and washed 2×PBS and the mean channel flourescence determined using flow cytometry (BD FACSCaliber). IL-2 levels were measured using the QuantiGlo IL-2 Elisa kit (R&D Systems).
(§5) We assessed the role of TRPV6 and cMAC in a T-cell activation screen. […]

ICOS = experiment: Jurkat T-cell activation, ICOS surface marker expression; conditions: Jurkat cells, PMA alone
Method: as §3, §4, §5

IL-2 [3] = experiment: IL-2 production of TCR/CD28 activated Jurkat T-cells after viral shDNA transduction; conditions: TCR/CD28 activated 6 days post transduction; for Average IL-2 % inhibition: pLKO.1 shDNA, puromycin selected, IL-2 normalized to viable cells
Method: as §4
Jurkat cell activation for shDNA inhibition studies: To assess shDNA efficacy, Jurkat cells (15000) were transduced with 10 μL LKO virus as described and 24 hours post transduction the media was fortified with puromycin (see below). Six days post transduction half the cells were activated with antibodies targeting TCR and CD28 receptors bound to a 96 well plate surface and incubated overnight and the media was collected for IL-2 determination. The remaining cells were used to determine the fraction of viable cells in each well using the Cell Titer-Glo assay (see below).
The activation plates were prepared by coating goat anti-mouse IgG, Fcγ fragment specific antibody (Jackson ImmunoResearch Laboratories) 55 μl per well at a final concentration of 10 μg/ml in PBS. The plates were incubated 3 hours at room temperature. Excess IgG was removed and plates were blotted. Plates were blocked with 300 μL 2% BSA/PBS (BSA, Fraction V lyophilizate, Roche) and incubated for 2 hours at room temperature. The plates were washed 3 times with PBS and stimulating antibodies anti-TCR 0.01 ug/ml (BD Biosciences 347770 clone WT31) and anti-CD28 0.3 ug/ml (BD Pharmingen 555725) in 2% BSA/PBS final volume 50 μL/well. Plates were incubated overnight and washed 3 times with PBS prior to addition of cells for activation.
(§6) Puromycin selection of shDNA transduced Jurkat cells and normalization for cell survival: The LKO viral vector used in this study contains a puromycin selection marker. Jurkat cells infected with shDNA constructs (LKO.1) were put under puromycin selection 24 hrs post infection by addition of puromycin (2 μg/ml) and maintained for the duration of the experiment (6 days post infection, 3 days for mRNA quantitation). To account for differences in cell number after puromycin selection (possibly due to variations in viral titer), we adopted a cellular ATP assay which is proportional to cell number (Cell Titer-Glo Luminescent Assay Kit, Promega). The assay was performed as per the manufacturer's instruction. A standard curve was generated for each cell type to determine linearity for the assay. The IL-2 concentrations were normalized to cell number by dividing the calculated IL-2 concentration by the rLU values for the cell titer-glo assay, which is equivalent to IL-2 expression/cell number. The mRNA expression levels were determined 3 days post infection.
To assess whether cMAC was essential for T-cell activation, we designed several shDNA constructs targeting cMAC. In these experiments Jurkat T-cells were transduced with viral constructs targeting cMAC or another unrelated gene. 6 days post transduction, the cells were activated with TCR/CD28 antibodies and the level of cMAC mRNA and IL-2 secreted into the media was measured. […] FIG. 10.

cMAC mRNA = cMAC mRNA knockdown in shDNA transduced Jurkat cells; conditions: for Average cMAC mRNA % Inhib.: 3 days post infection (2 days post puromycin selection)
Method: as §6
Determination of mRNA knockdown for cMAC: Jurkat mRNA expression levels were determined 3 days post infection (2 days post puromycin selection).
To determine the specificity of the shDNA construct, the reduction of cMAC mRNA was measured for each construct (Table 8) and compared to the inhibition of IL-2 observed. The pGL3-Luc and CD29 shDNA constructs served as negative controls. […] In those instances it may be that the shDNA is causing decreases in the expression of cMAC protein through microRNA effects. Thus, it appears that with the exception of 2 constructs (BL6 and BL8) the phenotypically active IL-2 constructs correlate with reduced cMAC mRNA levels.

CD29 mRNA = CD29 mRNA knockdown by shDNA construct

O=C(O)CN(CCOCCOCCN(CC(=O)O)CC(=O)O)CC(=O)O [EGTA]
effect on cMAC induced nuclear TORC1 translocation [1]: blocked

CCCCCCCCCCCCCC(=O)O[C@@H]1[C@@H](C)[C@@]2(O)[C@@H](C=C(CO)C[C@]3(O)C(=O)C(C)=C[C@@H]23)[C@@H]2C(C)(C)[C@]12OC(C)=O [PMA, phorbol 12-myristate 13-acetate]
effect on NFAT-1 translocation (NFAT-1): no effect
effect on NFAT-2 translocation (NFAT-2): no effect
upregulation of IL-2 (IL-2 [2]): did not upregulate
upregulation of ICOS expression levels (ICOS): did not upregulate

B1: cMAC BL7: shDNA construct in pLKO.1 lentiviral vector, target sequence ccgggtttccctattccaa (SEQ ID NO: 120) (nucleic acid)
sense: CCGGCCGGGTTTCCCTATTCCAATTCAAGAGATTGGAATAGGGAAACCCGGTTTTT
antisense: AATTAAAAACCGGGTTTCCCTATTCCAATCTCTTGAATTGGAATAGGGAAACCCGG
Average IL-2 % inhibition (IL-2 [3]): 40.8%
Average cMAC mRNA % Inhib. (cMAC mRNA): 66.4%

B2: cMAC BL4: shDNA construct in pLKO.1 lentiviral vector, target sequence ggttatctgttgcccaaga (SEQ ID NO: 111) (nucleic acid)
sense: CCGGGGTTATCTGTTGCCCAAGATTCAAGAGATCTTGGGCAACAGATAACCTTTTT
antisense: AATTAAAAAGGTTATCTGTTGCCCAAGATCTCTTGAATCTTGGGCAACAGATAACC
Average IL-2 % inhibition (IL-2 [3]): 65.7%
Average cMAC mRNA % Inhib. (cMAC mRNA): 56.2%

B3: cMAC BL8: shDNA construct in pLKO.1 lentiviral vector, target sequence gtcaggtgccacatgagaa (SEQ ID NO: 123) (nucleic acid)
sense: CCGGGTCAGGTGCCACATGAGAATTCAAGAGATTCTCATGTGGCACCTGACTTTTT
antisense: AATTAAAAAGTCAGGTGCCACATGAGAATCTCTTGAATTCTCATGTGGCACCTGAC
IL-2 reduction (IL-2 [3]): without any IL-2 reduction
Average IL-2 % inhibition (IL-2 [3]): 8.03%
Average cMAC mRNA % Inhib. (cMAC mRNA): 70.1%
Average cMAC mRNA % Inhib. (cMAC mRNA; listed as BL8): 70%

B4: cMAC BL3: shDNA construct in pLKO.1 lentiviral vector, target sequence catctttgttggcctacga (SEQ ID NO: 108) (nucleic acid)
sense: CCGGCATCTTTGTTGGCCTACGATTCAAGAGATCGTAGGCCAACAAAGATGTTTTT
antisense: AATTAAAAACATCTTTGTTGGCCTACGATCTCTTGAATCGTAGGCCAACAAAGATG
Average IL-2 % inhibition (IL-2 [3]): 52.1%
Average cMAC mRNA % Inhib. (cMAC mRNA): 30.1%

B5: cMAC BL5: shDNA construct in pLKO.1 lentiviral vector, target sequence gatttaagcctccctaaga (SEQ ID NO: 114) (nucleic acid)
sense: CCGGGATTTAAGCCTCCCTAAGATTCAAGAGATCTTAGGGAGGCTTAAATCTTTTT
antisense: AATTAAAAAGATTTAAGCCTCCCTAAGATCTCTTGAATCTTAGGGAGGCTTAAATC
Average IL-2 % inhibition (IL-2 [3]): 72.2%
Average cMAC mRNA % Inhib. (cMAC mRNA): 67.0%

B6: cMAC BL6: shDNA construct in pLKO.1 lentiviral vector, target sequence actagaatgttgacctcga (SEQ ID NO: 117) (nucleic acid)
sense: CCGGACTAGAATGTTGACCTCGATTCAAGAGATCGAGGTCAACATTCTAGTTTTTT
antisense: AATTAAAAAACTAGAATGTTGACCTCGATCTCTTGAATCGAGGTCAACATTCTAGT
IL-2 reduction (IL-2 [3]): without any IL-2 reduction
Average IL-2 % inhibition (IL-2 [3]): −9.34%
Average cMAC mRNA % Inhib. (cMAC mRNA): 35.8%
Average cMAC mRNA % Inhib. (cMAC mRNA; listed as BL6): 36%

B7: cMAC BL2: shDNA construct in pLKO.1 lentiviral vector, target sequence gcctttgttagatctatca (SEQ ID NO: 105) (nucleic acid)
sense: CCGGGCCTTTGTTAGATCTATCATTCAAGAGATGATAGATCTAACAAAGGCTTTTT
antisense: AATTAAAAAGCCTTTGTTAGATCTATCATCTCTTGAATGATAGATCTAACAAAGGC
Average IL-2 % inhibition (IL-2 [3]): 75.5%
Average cMAC mRNA % Inhib. (cMAC mRNA): 72.6%

B8: cMAC BL9: shDNA construct in pLKO.1 lentiviral vector, target sequence caggaatgtcctccaacca (SEQ ID NO: 126) (nucleic acid)
sense: CCGGCAGGAATGTCCTCCAACCATTCAAGAGATGGTTGGAGGACATTCCTGTTTTT
antisense: AATTAAAAACAGGAATGTCCTCCAACCATCTCTTGAATGGTTGGAGGACATTCCTG
Average IL-2 % inhibition (IL-2 [3]): 37.8%
Average cMAC mRNA % Inhib. (cMAC mRNA): 54.8%

B9: CD29 shDNA construct: negative control shDNA construct targeting CD29, target sequence ggtagaaagtcgggacaaa (SEQ ID NO: 132) (nucleic acid)
sense: CCGGGGTAGAAAGTCGGGACAAATTCAAGAGATTTGTCCCGACTTTCTACCTTTTT
antisense: AATTAAAAAGGTAGAAAGTCGGGACAAATCTCTTGAATTTGTCCCGACTTTCTACC
effect on cMAC message (cMAC mRNA): no effect
reduction of CD29 mRNA (CD29 mRNA): potently reduced CD29 mRNA

B10: cMAC MB4: shDNA construct in pLKO.1 lentiviral vector, target sequence ccttgggcuggcactcttatt (SEQ ID NO: 129) (nucleic acid)
sense: CCGGCCTTGGGCUGGCACTCTTATTCAAGAGATAAGAGTGCCAGCCCAAGGTTTTT
antisense: AATTAAAAACCTTGGGCTGGCACTCTTATCTCTTGAATAAGAGTGCCAGCCCAAGG
Average IL-2 % inhibition (IL-2 [3]): 78.9%
Average cMAC mRNA % Inhib. (cMAC mRNA): 65.9%
